Results on one molecule are retold here after patent publication US20220064335A1 (CRISPR THERAPEUTICS, published 2022).

Test [1] concerns the target T1, anti-CD19 CAR (SEQ ID NO: 8) on CAR T cells.
T1 construct: also called anti-CD19 CAR T cells
The experiment in a line: flow cytometry, % CAR positive cells against antibody dilution on anti-CD19 CAR T cells. The procedure: (§1) The purified 15C04-02F03 antibody was analyzed by flow cytometry for binding to CAR T cells expressing the anti-BCMA CAR of SEQ ID NO: 6 (anti-BCMA CAR T cells). CAR T cells expressing an anti-CD70 CAR of SEQ ID NO: 7 (anti-CD70 CAR T cells) or an anti-CD19 CAR SEQ ID NO: 8 (anti-CD19 CAR T cells) were used as negative controls. Anti-BCMA-scFv antibody (15C04-02F03) was analyzed at various dilutions (FIG. 2).

Test [2] concerns the target T2, anti-CD70 CAR (SEQ ID NO: 7) on CAR T cells.
T2 construct: also called anti-CD70 CAR T cells
Put plainly: flow cytometry, % CAR positive cells against antibody dilution on anti-CD70 CAR T cells. The procedure:
as §1
A general note: A flow cytometer gives signals particle by particle.

T2 sequence (chain, as listed by the source limits assumed): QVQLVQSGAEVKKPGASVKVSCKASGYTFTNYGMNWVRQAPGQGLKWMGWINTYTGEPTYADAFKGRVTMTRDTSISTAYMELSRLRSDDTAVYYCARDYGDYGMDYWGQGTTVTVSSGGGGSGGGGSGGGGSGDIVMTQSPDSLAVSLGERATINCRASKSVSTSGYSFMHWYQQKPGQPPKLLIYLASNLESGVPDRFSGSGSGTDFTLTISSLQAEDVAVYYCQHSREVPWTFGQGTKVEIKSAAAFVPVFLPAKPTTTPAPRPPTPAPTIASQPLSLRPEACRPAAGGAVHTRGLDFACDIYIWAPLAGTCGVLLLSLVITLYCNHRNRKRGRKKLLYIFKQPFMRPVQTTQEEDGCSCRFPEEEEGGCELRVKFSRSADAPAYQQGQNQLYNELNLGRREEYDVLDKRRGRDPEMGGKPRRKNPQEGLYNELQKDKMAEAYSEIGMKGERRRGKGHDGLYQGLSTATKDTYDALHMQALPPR

B1: mouse anti-BCMA-scFv monoclonal antibody 15C04-02F03 (antibody, mouse IgG1, kappa, V domains shown)
VH: QVQLQQPGAELVKPGTSVKLSCKASAYTFTNYWIHWVKQRPGQGLEWIGRIDPNSGDTKYNEKFKSKASLTVDKPSSTANMQLSSLTSEDSAVYYCTRWGDLHYYAMDYWGQGTSVTVSS
VL: DIVLTQSPASLAVSLGQRATISCQASESVSFTGTSLMHWYQQKPGQPPKLLIYRASNLDSGVPARFSGSGSESDFTLTIDPVEEDDAAVYYCMQSMEDPYTFGGGTKLEIKR
notes: also called Native 15C04-02F03; anti-BCMA-scFv-AJ-1.3-15C04-02F03
Regarding B1, the binding result in test [1] and in test [2] was “no binding” throughout.
